Experiment [1] has as its target T1, calcium-saturated calmodulin (human CaM, GenBank AAD45181) (human, UniProt P0DP23 2-149). The experiment is described as follows: isothermal titration calorimetry, CaM (200 µM) titrated into 5-20 µM peptide, 308 K; footnote c: From Frederick et al.
Experiment [2] deals with T1, calcium-saturated calmodulin (human …). The experiment is described as follows: isothermal titration calorimetry, CaM (200 µM) titrated into 5-20 µM peptide, 308 K.

B1: CaMKI(p), peptide of the calmodulin-binding domain of calmodulin kinase I (peptide)
peptide: AKSKWKQAFNATAVVRHMRKLQ
notes: Synthetic peptide for ITC and for titration of CaM; The expressed version used for target-domain NMR carries an extra amino-terminal GS; also called CaMK1p
Take B1: in experiment [1], the “-TΔSbinding^total” value was 16.6 kcal/mol, the “ΔGbinding^total” value was -11.8 kcal/mol and the “ΔHbinding^total” value was -28.4 kcal/mol.

B2: PDE(p), peptide of the calmodulin-binding domain of phosphodiesterase (C15S) (peptide)
peptide: QTEKMWQRLKGILRSLVKQ
notes: C15S is used to avoid oxidation; also called PDEs(p)
Consider B2, for which, in experiment [2], the “-TΔSbinding^total” value worked out at 8.1 kcal/mol, the “ΔGbinding^total” value is -9.06 kcal/mol and the “ΔHbinding^total” value is -17.2 kcal/mol.

B3: nNOS(p), peptide of the calmodulin-binding domain of neuronal nitric oxide synthase (peptide)
peptide: KRRAIGFKKLAEAVKFSAKLMGQ
notes: Synthetic peptide for ITC and for titration of CaM
Consider B3, for which, in experiment [2], the “-TΔSbinding^total” value is -0.454 kcal/mol, the “ΔGbinding^total” value is -12.4 kcal/mol and the “ΔHbinding^total” value was -11.9 kcal/mol.

B4: eNOS(p), peptide of the calmodulin-binding domain of endothelial nitric oxide synthase (peptide)
peptide: RKKTFKEVANAVKISASLMG
notes: Synthetic peptide for ITC and for titration of CaM; The expressed version used for target-domain NMR carries an extra amino-terminal GS
Turning to B4, in experiment [2], the “-TΔSbinding^total” value was found to be 6.14 kcal/mol, the “ΔGbinding^total” value is -11.8 kcal/mol and the “ΔHbinding^total” value was -17.9 kcal/mol.
